B1: Serine/threonine-protein kinase A-Raf, residues 21 to 89; numbered along this chain, P10398 (parent)
chain: VKVYLPNKQRTVVTVRDGMSVYDSLDKALKVRGLNQDCCVVYRLIKGRKTVTAWDTAIAPLDGEELIVE
B2: POU domain, class 2, transcription factor 1, residues 285 to 354; numbered along this chain, P14859 (parent)
chain: LEELEQFAKTFKQRRIKLGFTQGDVGLAMGKLYGNDFSQTTISRFEALNLSFKNMCKLKPLLEKWLNDAE

Variants of: B1
Assay: abundance fitness (aPCA) (normalised: wild type 0, dead -1); higher = more abundant; growth selection in yeast, the domain comes from the species named
Details: Homo sapiens

Abundance fitness of substitutions, site by site:
T14: F -0.01; Y -0.415; D -0.205; V -0.126; L -0.172; E -0.138; P -0.005; S -0.156; K -0.008; Q 0.034; W -0.098; C -0.251; G -0.295; N -0.097; H -0.213; A -0.078; M -0.113
V21: C -0.707; A -0.273; E -0.65; F -0.392
G18: M -0.89; E -0.25; H -0.244; I -0.882; Y -0.638; P -0.659; R -0.373; Q -0.305; T -0.405; D -0.143; K -0.08; F -0.651; V -0.663; C -0.261; S -0.239; A -0.513; W -0.636
Y4: V 0.011; W -0.045; H 0.048; D -0.601; P -0.96; M 0.032; K 0.069; I -0.001; S -0.022; F -0.063; R 0; L 0.068; C -0.366; Q 0.009; G -0.663; E -0.133; T -0.101; A -0.217
R10: D -0.281; Q 0.036; L -0.059; E 0.118; C 0.025; V 0.187; Y 0.051; W 0.067; M 0.139; N 0.042; A -0.15; G -0.158; P -0.318; F 0.147; K -0.002; I 0.258; T 0.111; S 0.177; H 0.041
P6: G -0.463; S -0.233; Q -0.363; C -0.55; W -1.01; H -0.683; L -0.804
V15: H -0.122; T -0.147; S -0.179; L -0.105; G -0.17; C 0; A -0.017; P -0.257; F -0.001; I -0.088; R -0.822; N -0.408; W -0.093; M -0.234; K -0.797; D -0.33; Q -0.686
L5: A -0.772; R -1.1; K -0.99; W 0.113; P -0.778; F 0.102; T -0.916; Q -0.87; E -0.844; S -0.818; C -0.784; M -0.064; V -0.896
V1: G -0.744; M -0.141; L -0.076; A -0.684; F -0.358; S -0.528; I -0.096; C -0.184; E -0.833; R -0.487
T11: C -0.064; Q -0.1; Y -0.351; L 0.052; G -0.919; F -0.08; M -0.002; K -0.371; I -0.072; D -0.233; W -0.652; S -0.582; V 0.038; E -0.108; P -0.979; R -0.652
N7: C -0.521; H -0.272; T -0.655; V -0.929; Y -0.19; I -0.936; L -0.735; F -0.49; E -0.17; S -0.321; Q -0.216; D 0.039; M -0.406; K -0.343; A -0.44; P -0.861; G 0.041
V3: E -0.745; D -0.794; G -0.966; T -0.985; M -0.814; S -0.856; W -0.877; F -0.552; L -0.191; K -0.622; Y -0.016; C -0.274; I -0.298; A -0.672; R -0.808; Q -1.02; P -1.01
K8: W -0.355; G 0.16; Q -0.031; T -0.286; E 0; I -0.683; Y -0.231; N 0.132; D -0.133; V -0.723; P -1.02; H -0.102; C -0.243; R -0.005; A -0.042; S -0.111; F -0.363; M -0.107; L -0.363
Q9: T -0.209; V -0.035; H -0.559; A -0.198; P -0.876; D 0.028; W -0.448; S -0.11; Y -0.458; I -0.162; N -0.332; M -0.149; L -0.455; C -0.479; K -0.042; R -0.211; E -0.008; G -0.297
K2: A -0.242; N -0.139; S -0.172; E -0.379; G -0.37; Y -0.313; V -0.118; P -0.528; T 0.057; M -0.217; W -0.314; D -0.416; Q -0.32; F -0.466; L -0.349; R 0.038
D17: K 0.017; I -0.221; T -0.178; G -0.096; L -0.319; C -0.418; P 0.075; M -0.144; E -0.032; A 0.039; S -0.04; W -0.304; Q 0; V -0.186; Y -0.319; F -0.114; H -0.279
R16: Y 0; P -0.117; M -0.181; D -0.106; C -0.028; F -0.169; L -0.072; V -0.133; S -0.048; H 0.191; N -0.147; A -0.027; T -0.086; K -0.045; G -0.108; I -0.073; E -0.037
V13: W -0.856; K -0.955; L -0.202; M -0.892; Q -0.468; F -0.795; C -0.206; G -1.06; R -0.78; D -0.714; S -1; I 0.039; E -0.857; T -0.864; P -0.772
M19: G -0.216; V -0.057; F -0.274; P -0.778; H -0.491; T -0.034; W -0.053; R -0.218; E -0.013; Y -0.352; K -0.223; Q 0.011; L -0.154; I -0.413; D -0.09; A -0.17; C -0.091
S20: F -0.844; M -0.832; D -0.296; C -0.31; T 0; L -0.91; Y -0.623; W -0.847; Q -0.799; R -0.352; P -0.728; E -0.913; N -0.122; G -0.94; V -0.876; A -0.808
V12: E -0.066; L -0.189; T -0.096; G -0.983; H -0.115; D -0.341; Q -0.18; I -0.117; F -0.254; M -0.264; Y 0.019; K -0.111; P -0.748; A -0.503; N -0.325; R -0.096; W -0.067; C -0.304

Variants of: B2
Assay: as above
Details: Homo sapiens

Abundance fitness, by site and new letter:
E70: P -0.349; V -0.083; R -0.36; G -0.13; D -0.029; W 0.071; S 0.076; I -0.048; K 0.011

From the Human Domainome abundance scans (Beltran et al. 2025)
